In PMC10314698 one finds Kd and koff data, which are given here for one substance.

In this test the target is soluble BCMA (B-cell maturation antigen) (UniProt Q02223). The experiment in a line: SPR.
Sequence of soluble BCMA (B-cell maturation antigen) (Q02223 1-54): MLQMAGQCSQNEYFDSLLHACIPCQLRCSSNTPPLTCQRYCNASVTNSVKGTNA

As for LCAR-B38M (Nanjing_GSI5022_Dual_VHH), the Kd is 2.89 nM and the koff came out at 0.0162 s⁻¹.
